# B1: Recombinant Irga6 (residues 1-413) (natural protein)
# chain: MGQLFSSPKSDENNDLPSSFTGYFKKFNTGRKIISQEILNLIELRMRKGNIQLTNSAISDALKEIDSSVLNVAVTGETGSGKSSFINTLRGIGNEEEGAAKTGVVEVTMERHPYKHPNIPNVVFWDLPGIGSTNFPPNTYLEKMKFYEYDFFIIISATRFKKNDIDIAKAISMMKKEFYFVRTKVDSDITNEADGKPQTFDKEKVLQDIRLNCVNTFRENGIAEPPIFLLSNKNVCHYDFPVLMDKLISDLPIYKRHNFMVSLPNITDSVIEKKRQFLKQRIWLEGFAADLVNIIPSLTFLLDSDLETLKKSMKFYRTVFGVDETSLQRLARDWEIEVDQVEAMIKSPAVFKPTDEETIQERLSRYIQEFCLANGYLLPKNSFLKEIFYLKYYFLDMVTEDAKTLLKEICLRN
# notes: immunity-related GTPase Irga6, mouse, residues 1-413; a TEV cleavage site stands between the tags and the protein; source: recombinant (Lim et al., submitted)
# Molecular target: the molecule itself
# Assay: dynamic light scattering; 20 µM Irga6 with 10 mM GTP at 37°C in 50 mM Tris/5 mM MgCl2/2 mM DTT, in the presence or absence of 40 µM (His6)-MBP-tagged ROP5-CIII or (His6)-MBP; mean hydrodynamic radius over 35 minutes
protein,measurement,value
B1,binding result,binds
